This assay concerns the target T1, papain (immobilised, papain affinity chromatography) (UniProt P00784 134-345).
T1 sequence (looked up): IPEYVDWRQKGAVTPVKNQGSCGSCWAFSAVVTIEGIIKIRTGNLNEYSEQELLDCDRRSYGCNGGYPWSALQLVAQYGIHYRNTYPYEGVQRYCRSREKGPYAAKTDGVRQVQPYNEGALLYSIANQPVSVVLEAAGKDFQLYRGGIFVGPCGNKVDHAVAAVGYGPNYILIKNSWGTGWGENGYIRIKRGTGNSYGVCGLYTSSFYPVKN
Description: papain affinity chromatography (retention on immobilised papain during purification).

B1: glycosylated cystatin C (CCg), 21 kDa protein purified from conditioned medium of adult rat hippocampus-derived neural progenitor cells (other, UniProt P14841 21-140, looked up)
chain: GTSRPPPRLLGAPQEADASEEGVQRALDFAVSEYNKGSNDAYHSRAIQVVRARKQLVAGINYYLDVEMGRTTCTKSQTNLTNCPFHDQPHLMRKALCSFQIYSVPWKGTHTLTKSSCKNA
modifications: N-linked carbohydrate moiety of approximately 2.4 kDa (about 15 hexose residues) at the N-glycosylation site (Asn79-X-Thr); carbohydrate moiety of 0.3 kDa at the O-glycosylation site (Ser3)
notes: mature; also called glycosylated form of cystatin C; stem cell glycocystatin C
As to B1, the binding result was “binds”.

For the origin of these results see US20030022261A1 (SALK INSTITUTE FOR BIOLOGICAL STUDIES, published 2003).
